Numbering of substitutions follows the chain as printed.

In one assay the test system is PDK1. Put plainly: PDK1 protein kinase activity test with T308tide substrate. It counts as biochemical, human. The following applies: T308tide as substrate. How it is done:
In brief, PDK1 activity assay was performed at room temperature (22° C.) in a 20 μl mix containing 50 mM Tris pH 7.5, 0.05 mg/ml BSA, 0.1% β-mercaptoethanol, 10 mM MgCl2, 100 μM [γ^32P]ATP (5-50 cpm/pmol), 0.003% Brij, 150 ng PDK1, and T308tide (from 0.1 to 1 mM). […] Experiments were repeated at least twice.

The next assay has as its target T1, PDK1 CD wt (Homo sapiens, UniProt O15530).
T1 construct: PDK1 CD (50-359), wt (0.35 μM), PDK1 [Phe224Trp] or PDK1 [Thr226Trp] were injected onto the system; GST (N); made in house; host or cells: insect cells
T1 sequence (O15530 50-359): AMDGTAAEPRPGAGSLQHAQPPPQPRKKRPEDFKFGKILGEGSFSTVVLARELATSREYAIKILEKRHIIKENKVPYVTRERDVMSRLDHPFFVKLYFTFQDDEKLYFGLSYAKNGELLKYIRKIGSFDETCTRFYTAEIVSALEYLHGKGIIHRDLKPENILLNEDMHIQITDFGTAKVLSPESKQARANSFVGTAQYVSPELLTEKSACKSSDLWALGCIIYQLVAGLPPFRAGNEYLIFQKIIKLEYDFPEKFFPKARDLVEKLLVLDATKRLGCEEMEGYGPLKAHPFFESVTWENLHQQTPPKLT
Briefly: Surface plasmon resonance (BiaCore) on biotin-P-HM-S6K chip. It counts as binding. To be noted: protein pre-incubated with PIFtide. How it is done:
(§1) Surface Plasmon resonance (BiaCore) and alpha-screen interaction and displacement assays: Binding of GST-PDK1 to a P-HM-polypeptide derived from S6K1 shown in FIG. 6 was analysed by surface plasmon resonance on a BiaCore 3000 system using a streptavidin-coated Sensor chip (SA) and biotin-P-HM-polypeptide, as previously described (Biondi, R. M. et al., Embo. J. 20:4380-4390 (2001). The interaction of His-PDK1 with biotin-PIFtide and the displacement by compounds shown in FIG. 3 was performed using the alpha-screen Ni-Chelate kit (Perkin Elmer) on an Envision 2104 multilabel system (Perkin Elmer).
(§2) BiaCore analysis was performed as described previously (Biondi, R. M. et al., Embo. J. 19:979-988 (2000)). […] Since both mutants were performed on the same construct of PDK1, their mass should be very similar and therefore should also produce 600RU when all biotin-(P)HM-S6K polypeptides on the same chip are bound to the mutant PDK1 proteins. Unfortunately, when mutant PDK1 Phe224Trp and PDK1 Thr226Trp were analysed, the injection of the mutants at concentrations higher than 1.3 μM prompted unspecific effects, therefore making difficult the evaluation. […]

In another assay the target is T2, PDK1[Thr226Trp] (Homo sapiens, UniProt O15530, T226W).
T2 construct: The catalytic domain (CD) of PDK1 50-359 and its mutants Phe224Trp and Thr226Trp were expressed in insect cells and purified; made in house; host or cells: insect cells
T2 sequence (O15530 50-359 T226W): T1 sequence (O15530 50-359) with T177W
Put plainly: Surface plasmon resonance (BiaCore) on biotin-P-HM-S6K chip, Thr226Trp mutant. In kind it is binding. The following applies: protein pre-incubated with PIFtide. How it is done:
as §1, §2

For the next assay, the target named is T3, PDK1 Tyr126 mutant (Homo sapiens, UniProt O15530, Y126A).
T3 sequence (O15530 1-556 Y126A): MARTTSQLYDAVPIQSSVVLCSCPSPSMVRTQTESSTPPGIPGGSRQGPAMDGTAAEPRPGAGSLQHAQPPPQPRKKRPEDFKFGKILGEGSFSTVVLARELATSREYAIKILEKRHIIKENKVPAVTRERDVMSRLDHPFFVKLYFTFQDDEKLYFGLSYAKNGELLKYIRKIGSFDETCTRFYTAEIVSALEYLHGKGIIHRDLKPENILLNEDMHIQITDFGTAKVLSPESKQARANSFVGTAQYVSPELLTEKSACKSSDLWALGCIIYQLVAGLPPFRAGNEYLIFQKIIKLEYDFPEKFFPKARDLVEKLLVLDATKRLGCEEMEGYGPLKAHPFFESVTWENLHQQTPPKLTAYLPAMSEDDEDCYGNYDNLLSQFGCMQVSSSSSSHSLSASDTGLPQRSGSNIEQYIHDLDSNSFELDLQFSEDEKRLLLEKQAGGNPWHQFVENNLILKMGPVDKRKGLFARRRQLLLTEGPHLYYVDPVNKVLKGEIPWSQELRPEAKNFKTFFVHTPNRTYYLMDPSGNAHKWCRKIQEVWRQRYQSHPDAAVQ
Put plainly: Biacore binding of PIFtide (data of Komander et al. 2005). The following applies: applicant's estimate from the published biacore data.

Assay [1] addresses T4, PDK1 50-359 [Y288G;Q292A] (Homo sapiens, UniProt O15530, Q292A/Y288G).
T4 sequence (O15530 with tags, fused parts or gaps Y288G/Q292A): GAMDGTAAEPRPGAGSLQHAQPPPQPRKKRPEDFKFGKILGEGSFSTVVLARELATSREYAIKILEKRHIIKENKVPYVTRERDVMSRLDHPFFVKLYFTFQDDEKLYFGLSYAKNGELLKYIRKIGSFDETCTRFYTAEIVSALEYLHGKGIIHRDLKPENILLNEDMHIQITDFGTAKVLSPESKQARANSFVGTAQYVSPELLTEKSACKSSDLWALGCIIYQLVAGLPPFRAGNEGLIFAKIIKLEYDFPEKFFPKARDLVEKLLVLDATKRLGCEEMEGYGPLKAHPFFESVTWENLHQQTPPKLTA
Put plainly: Amide 1H/2H exchange and mass spectrometry.
Method: For local exchange analysis, the labeled proteins were digested with pepsin and the resulting polypeptides analyzed by tandem mass-spectrometry (LC-MS/MS) for their incorporation of deuterium atoms. The graphics represent the number of deuterium atoms incorporated into each polypeptide upon the stated incubation time in deuterated water. […] Over time, amide hydrogen atoms exchanged for deuteriums and the molecular weight of the protein increased. We repeated the ^1H/^2H exchange experiments at four different incubation times: 1, 5, 15 and 45 minutes. […] In the presence of peptide or small compounds, protein and ligand solution were pre-incubated on ice for 50 min before the mixture was diluted into labeling buffer. After the exchange reaction, samples were loaded on a pepsin column for one minute for digestion into peptides and samples quenched at each time point. They were then subjected to liquid chromatography for separation and analyzed by tandem mass-spectrometry (LC-MS/MS) for their incorporation of deuterium atoms. The entire plumbing system was immersed in an ice bath. 61 polypeptides were identified with overlapping regions, covering 80% of PDK1 sequence. As it is not possible to predict the cleavage sites of pepsin in the PDK1 sequence, it was necessary to identify the peptides generated by pepsin digestion for local-exchange analysis.

Chain of PDK1 (O15530 51-360 limits assumed): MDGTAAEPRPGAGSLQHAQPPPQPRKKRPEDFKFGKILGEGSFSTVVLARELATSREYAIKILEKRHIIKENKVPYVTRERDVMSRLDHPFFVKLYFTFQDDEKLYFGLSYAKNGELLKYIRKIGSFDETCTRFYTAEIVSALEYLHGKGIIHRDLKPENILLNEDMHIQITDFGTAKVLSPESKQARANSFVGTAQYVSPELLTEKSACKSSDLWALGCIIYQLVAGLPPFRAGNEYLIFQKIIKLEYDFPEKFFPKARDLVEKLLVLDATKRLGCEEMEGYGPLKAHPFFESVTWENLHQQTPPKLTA

As for REPRILSEEEQEMFRDFDYIADWC [PIFtide], the “activation of PDK1” value in the assay on PDK1 is given as “activated”. Further, in the assay with PDK1 CD wt, the “displacement by PIFtide of PDK1 binding to biotin-P-HM-S6K” value is “displaced”. In addition, in the assay with PDK1[Thr226Trp], the “displacement by PIFtide of PDK1[Thr226Trp] binding to the chip” value is “displaced”. Also, the “decreased affinity for PIFtide of the Tyr126 mutant” value with PDK1 Tyr126 mutant is “over 30 fold”. Further, the “global exchange protection, 2H less incorporated/PDK1 molecule” value in assay [1] (after 45 minutes, PIFtide 0.625 mM, PS48 500 μM, PS08 250 μM) was 20 ^2H. Further, in assay [1] (first time point (1 min)), the “2H less incorporated (protection), peptide 122-134 (α-C-helix)” value was “five”.

The record behind these values is US20120003668A1, “HIGH RESOLUTION COMPLEX STRUCTURE AND ALLOSTERIC EFFECTS OF LOW MOLECULAR WEIGHT ACTIVATORS ON THE PROTEIN KINASE PDK1” (UNIVERSITAET DES SAARLANDES, priority 2008, published 2012).
